Measurements published in US20220323583A1, “Pharmaceutical Formulations of Bi-Specific Diabodies and Use of the Same” (MacroGenics, Inc., priority 2019, published 2022).

Key:
[1] = biological target: Cynomolgus CD3ε/δ (cynomolgus monkey) (UniProt Q95LI5); assay: kinetic binding measurement, method not stated
Human CD3ε/δ (human) = Human CD3ε/δ (human) (UniProt P07766); assay: kinetic binding measurement, method not stated
Human CD3ε/δ (human), sequence (P07766 23-126, stated change not applied, chain 1 of 2): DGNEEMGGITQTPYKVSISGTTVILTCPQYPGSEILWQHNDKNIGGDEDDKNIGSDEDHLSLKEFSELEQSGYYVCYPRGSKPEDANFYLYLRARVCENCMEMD
Human CD3ε/δ (human), sequence (P04234 22-105, stated change not applied, chain 2 of 2, further chain): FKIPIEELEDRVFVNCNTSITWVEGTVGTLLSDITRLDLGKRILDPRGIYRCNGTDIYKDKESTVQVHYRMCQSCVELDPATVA

Kd [1]: 9.2 nM
koff [1]: 0.005 s⁻¹
kon [1]: 550000 M⁻¹ s⁻¹
Kd (Human CD3ε/δ (human)): 9 nM
koff (Human CD3ε/δ (human)): 0.005 s⁻¹
kon (Human CD3ε/δ (human)): 570000 M⁻¹ s⁻¹
B1: DART-A, sequence-optimized CD123×CD3 bispecific diabody (bispecific antibody)
chain 1: QAVVTQEPSLTVSPGGTVTLTCRSSTGAVTTSNYANWVQQKPGQAPRGLIGGTNKRAPWTPARFSGSLLGGKAALTITGAQAEDEADYYCALWYSNLWVFGGGTKLTVLGGGGSGGGGEVQLVQSGAELKKPGASVKVSCKASGYTFTDYYMKWVRQAPGQGLEWIGDIIPSNGATFYNQKFKGRVTITVDKSTSTAYMELSSLRSEDTAVYYCARSHLLRASWFAYWGQGTLVTVSSGGCGGGEVAALEKEVAALEKEVAALEKEVAALEK
chain 2: DFVMTQSPDSLAVSLGERVTMSCKSSQSLLNSGNQKNYLTWYQQKPGQPPKLLIYWASTRESGVPDRFSGSGSGTDFTLTISSLQAEDVAVYYCQNDYSYPYTFGQGTKLEIKGGGSGGGGEVQLVESGGGLVQPGGSLRLSCAASGFTFSTYAMNWVRQAPGKGLEWVGRIRSKYNNYATYYADSVKDRFTISRDDSKNSLYLQMNSLKTEDTAVYYCVRHGNFGNSYVSWFAYWGQGTLVTVSSGGCGGGKVAALKEKVAALKEKVAALKEKVAALKE
